Test results taken from IntAct's records for PubMed 32296183.

B1: Ceroid-lipofuscinosis neuronal protein 6 (Homo sapiens), Q9NWW5 (parent)
chain: MEATRRRQHLGATGGPGAQLGASFLQARHGSVSADEAARTAPFHLDLWFYFTLQNWVLDFGRPIAMLVFPLEWFPLNKPSVGDYFHMAYNVITPFLLLKLIERSPRTLPRSITYVSIIIFIMGASIHLVGDSVNHRLLFSGYQHHLSVRENPIIKNLKPETLIDSFELLYYYDEYLGHCMWYIPFFLILFMYFSGCFTASKAESLIPGPALLLVAPSGLYYWYLVTEGQIFILFIFTFFAMLALVLHQKRKRLFLDSNGLFLFSSFALTLLLVALWVAWLWNDPVLRKKYPGVIYVPEPWAFYTLHVSSRH
partner: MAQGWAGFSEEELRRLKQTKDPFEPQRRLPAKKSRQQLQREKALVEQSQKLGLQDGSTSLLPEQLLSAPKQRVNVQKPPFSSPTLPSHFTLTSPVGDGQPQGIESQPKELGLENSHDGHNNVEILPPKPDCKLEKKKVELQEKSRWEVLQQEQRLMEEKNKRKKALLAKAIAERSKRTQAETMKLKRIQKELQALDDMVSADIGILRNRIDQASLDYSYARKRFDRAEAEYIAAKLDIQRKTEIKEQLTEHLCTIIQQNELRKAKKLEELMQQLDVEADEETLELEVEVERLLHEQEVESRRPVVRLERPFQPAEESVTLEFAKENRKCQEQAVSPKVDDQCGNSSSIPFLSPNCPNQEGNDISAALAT
B2: Ceroid-lipofuscinosis neuronal protein 6 (Homo sapiens), Q9NWW5 (parent)
chain: B1 chain
partner: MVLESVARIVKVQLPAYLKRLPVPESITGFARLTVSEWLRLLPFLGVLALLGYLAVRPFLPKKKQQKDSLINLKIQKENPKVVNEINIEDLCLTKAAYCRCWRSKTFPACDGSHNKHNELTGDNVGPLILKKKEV
B3: Very-long-chain enoyl-CoA reductase (Homo sapiens), Q9NZ01 (parent)
chain: MKHYEVEILDAKTREKLCFLDKVEPHATIAEIKNLFTKTHPQWYPARQSLRLDPKGKSLKDEDVLQKLPVGTTATLYFRDLGAQISWVTVFLTEYAGPLFIYLLFYFRVPFIYGHKYDFTSSRHTVVHLACICHSFHYIKRLLETLFVHRFSHGTMPLRNIFKNCTYYWGFAAWMAYYINHPLYTPPTYGAQQVKLALAIFVICQLGNFSIHMALRDLRPAGSKTRKIPYPTKNPFTWLFLLVSCPNYTYEVGSWIGFAIMTQCLPVALFSLVGFTQMTIWAKGKHRSYLKEFRDYPPLRMPIIPFLL
partner: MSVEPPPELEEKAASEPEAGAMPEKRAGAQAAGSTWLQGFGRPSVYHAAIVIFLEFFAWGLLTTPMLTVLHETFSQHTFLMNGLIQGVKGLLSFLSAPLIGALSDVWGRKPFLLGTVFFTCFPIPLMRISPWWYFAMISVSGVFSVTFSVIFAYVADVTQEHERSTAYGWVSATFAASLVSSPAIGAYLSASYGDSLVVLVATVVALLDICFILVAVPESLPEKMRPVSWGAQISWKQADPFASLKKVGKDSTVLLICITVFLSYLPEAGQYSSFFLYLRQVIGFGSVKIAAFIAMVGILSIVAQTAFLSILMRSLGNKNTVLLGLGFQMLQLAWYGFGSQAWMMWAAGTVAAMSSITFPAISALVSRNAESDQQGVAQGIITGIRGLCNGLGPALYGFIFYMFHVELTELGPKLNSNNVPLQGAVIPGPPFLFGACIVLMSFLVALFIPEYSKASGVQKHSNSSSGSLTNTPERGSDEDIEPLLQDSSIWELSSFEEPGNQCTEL
B4: Ceroid-lipofuscinosis neuronal protein 6 (Homo sapiens), Q9NWW5 (parent)
chain: B1 chain
partner: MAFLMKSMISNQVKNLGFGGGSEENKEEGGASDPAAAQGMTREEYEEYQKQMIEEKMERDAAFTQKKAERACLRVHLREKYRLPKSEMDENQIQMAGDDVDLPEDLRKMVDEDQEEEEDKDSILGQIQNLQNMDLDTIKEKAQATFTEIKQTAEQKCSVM
B5: Golgi SNAP receptor complex member 2 (Homo sapiens), O14653 (parent)
chain: MDPLFQQTHKQVHEIQSCMGRLETADKQSVHIVENEIQASIDQIFSRLERLEILSSKEPPNKRQNARLRVDQLKYDVQHLQTALRNFQHRRHAREQQERQREELLSRTFTTNDSDTTIPMDESLQFNSSLQKVHNGMDDLILDGHNILDGLRTQRLTLKGTQKKILDIANMLGLSNTVMRLIEKRAFQDKYFMIGGMLLTCVVMFLVVQYLT
partner: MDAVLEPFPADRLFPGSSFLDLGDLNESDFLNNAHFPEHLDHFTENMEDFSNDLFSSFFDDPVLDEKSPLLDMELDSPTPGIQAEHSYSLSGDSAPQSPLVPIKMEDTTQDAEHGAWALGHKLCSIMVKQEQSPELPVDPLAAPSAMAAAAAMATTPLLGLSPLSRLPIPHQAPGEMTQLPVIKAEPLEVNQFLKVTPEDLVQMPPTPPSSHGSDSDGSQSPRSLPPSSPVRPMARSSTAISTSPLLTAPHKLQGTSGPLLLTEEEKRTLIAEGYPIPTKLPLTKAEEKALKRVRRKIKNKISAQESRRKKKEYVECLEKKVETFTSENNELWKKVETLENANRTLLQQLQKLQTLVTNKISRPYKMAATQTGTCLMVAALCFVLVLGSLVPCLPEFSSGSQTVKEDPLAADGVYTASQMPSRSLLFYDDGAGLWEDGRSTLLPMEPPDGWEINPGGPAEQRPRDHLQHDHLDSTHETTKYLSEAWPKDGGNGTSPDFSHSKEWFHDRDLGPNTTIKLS
B6: Very-long-chain enoyl-CoA reductase (Homo sapiens), Q9NZ01 (parent)
chain: B3 chain
partner: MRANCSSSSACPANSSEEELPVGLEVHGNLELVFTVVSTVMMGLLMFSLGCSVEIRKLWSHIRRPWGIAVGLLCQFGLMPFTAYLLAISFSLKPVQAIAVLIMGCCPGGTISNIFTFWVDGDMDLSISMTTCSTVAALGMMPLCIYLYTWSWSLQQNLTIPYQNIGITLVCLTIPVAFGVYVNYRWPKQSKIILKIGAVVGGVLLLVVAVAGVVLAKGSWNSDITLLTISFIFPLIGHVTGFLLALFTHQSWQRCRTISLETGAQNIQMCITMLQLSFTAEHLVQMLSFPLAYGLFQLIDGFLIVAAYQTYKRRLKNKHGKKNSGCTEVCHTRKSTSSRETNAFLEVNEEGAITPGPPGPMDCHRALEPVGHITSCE
B7: Golgi SNAP receptor complex member 2 (Homo sapiens), O14653 (parent)
chain: B5 chain
partner: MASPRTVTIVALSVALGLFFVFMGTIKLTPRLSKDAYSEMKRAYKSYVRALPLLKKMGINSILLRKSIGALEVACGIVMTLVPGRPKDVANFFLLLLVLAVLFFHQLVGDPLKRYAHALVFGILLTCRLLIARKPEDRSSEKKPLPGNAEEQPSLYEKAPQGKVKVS
B8: Golgi SNAP receptor complex member 2 (Homo sapiens), O14653 (parent)
chain: B5 chain
partner: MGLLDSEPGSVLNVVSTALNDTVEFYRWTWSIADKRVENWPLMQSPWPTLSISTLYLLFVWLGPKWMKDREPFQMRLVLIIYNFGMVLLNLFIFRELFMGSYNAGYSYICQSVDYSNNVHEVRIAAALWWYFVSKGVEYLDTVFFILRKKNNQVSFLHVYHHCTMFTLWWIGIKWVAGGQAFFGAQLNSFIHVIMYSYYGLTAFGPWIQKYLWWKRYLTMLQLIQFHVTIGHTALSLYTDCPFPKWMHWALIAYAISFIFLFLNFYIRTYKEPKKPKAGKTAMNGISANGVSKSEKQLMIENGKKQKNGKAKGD
B9: Ceroid-lipofuscinosis neuronal protein 6 (Homo sapiens), Q9NWW5 (parent)
chain: B1 chain
partner: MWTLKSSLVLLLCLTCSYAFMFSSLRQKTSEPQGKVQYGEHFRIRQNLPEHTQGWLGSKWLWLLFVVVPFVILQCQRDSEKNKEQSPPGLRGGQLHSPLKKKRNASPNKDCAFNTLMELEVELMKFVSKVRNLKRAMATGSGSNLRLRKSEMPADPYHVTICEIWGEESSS
B10: Golgi SNAP receptor complex member 2 (Homo sapiens), O14653 (parent)
chain: B5 chain
partner: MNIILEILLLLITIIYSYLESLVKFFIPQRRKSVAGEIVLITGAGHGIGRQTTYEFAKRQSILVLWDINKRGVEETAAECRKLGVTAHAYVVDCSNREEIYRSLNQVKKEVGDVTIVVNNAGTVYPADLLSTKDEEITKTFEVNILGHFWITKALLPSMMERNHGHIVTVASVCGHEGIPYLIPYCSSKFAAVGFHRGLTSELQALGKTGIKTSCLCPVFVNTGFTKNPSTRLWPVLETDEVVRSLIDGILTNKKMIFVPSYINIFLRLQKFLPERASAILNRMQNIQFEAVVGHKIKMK

Variants of: B1
Details: with gorab_human GORAB

**Q.** How did the “effect of a mutation on the interaction” value turn out when L47F was run?
**A.** with no effect

**Q.** For G123D, which “effect of a mutation on the interaction” value is on record?
**A.** with no effect

Variants of: B2
Details: with cisd2_human CISD2, Q8N5K1

**Q.** Which “effect of a mutation on the interaction” value does the source give for R6T here?
**A.** with no effect

**Q.** How did the “effect of a mutation on the interaction” value turn out when L47F was run?
**A.** with no effect

**Q.** With G123D as the variant, how does the “effect of a mutation on the interaction” value read?
**A.** with no effect

Variants of: B3
Details: with mf14b_human MFSD14B

**Q.** For P182L, which “effect of a mutation on the interaction” value is on record?
**A.** disrupting interaction strength

Variants of: B4
Details: with cplx4_human CPLX4, Q7Z7G2

**Q.** Which “effect of a mutation on the interaction” value does the source give for R6T here?
**A.** with no effect

**Q.** How did the “effect of a mutation on the interaction” value turn out when L47F was run?
**A.** with no effect

**Q.** How did the “effect of a mutation on the interaction” value turn out when G123D was run?
**A.** with no effect

Variants of: B5
Details: with cr3l1_human CREB3L1, Q96BA8

**Q.** How did the “effect of a mutation on the interaction” value turn out when G144W was run?
**A.** with no effect

Variants of: B6
Details: with soat_human SLC10A6, Q3KNW5

**Q.** With P182L as the variant, how does the “effect of a mutation on the interaction” value read?
**A.** with no effect

Variants of: B7
Details: with nacho_human TMEM35A

**Q.** G144W was tested. Which “effect of a mutation on the interaction” value did it give?
**A.** with no effect

Variants of: B8
Details: with elov4_human ELOVL4, Q9GZR5

**Q.** For G144W, which “effect of a mutation on the interaction” value is on record?
**A.** with no effect

Variants of: B9
Details: with FAM209A

**Q.** L47F was tested. Which “effect of a mutation on the interaction” value did it give?
**A.** with no effect

**Q.** How did the “effect of a mutation on the interaction” value turn out when G123D was run?
**A.** with no effect

Variants of: B10
Details: with dhb13_human HSD17B13, Q7Z5P4

**Q.** Which “effect of a mutation on the interaction” value does the source give for G144W here?
**A.** with no effect
